Measurements reported in paper PMC5529482.
pEC50, pKd: −log10 of the molar value.

What was measured:
[1] = molecular target: mouse TNFR2-Fc fusion protein (mouse) (UniProt P25119); experiment: quartz crystal microbalance; mouse TNFR2-Fc chemically immobilised on a carboxyl sensor chip at low density (130 Hz, non-saturated); muteins 8-256 nM; PBST (PBS, 0.1% Tween 20) pH 7.4, 37 °C; Attana Cell 200; biphasic curves for p53- and GCN4-sc-mTNFR2
[2] = molecular target: mouse TNFR2-Fc fusion protein (mouse) (UniProt P25119); experiment: quartz crystal microbalance; mouse TNFR2-Fc chemically immobilised on a carboxyl sensor chip at high density (270 Hz, saturated); muteins 2-32 nM; PBST (PBS, 0.1% Tween 20) pH 7.4, 37 °C; Attana Cell 200
[3] = molecular target: mouse TNFR2-Fc fusion protein (mouse) (UniProt P25119); experiment: ELISA; TNFR1-Fc or TNFR2-Fc coated at 1 µg/ml in PBS, 4 °C overnight; TNF muteins in 2% skim milk powder in PBS, 1 h RT; detected with anti-TNF clone F6C5 and HRP anti-mouse IgG
[4] = molecular target: p53-sc-mTNFR2 (not stated | mouse) (UniProt P04637); experiment: SEC; approx. 20 µg protein on BioSep-SEC-S2000 in PBS, 0.5 ml/min; size by standard proteins
[5] = molecular target: EHD2-sc-mTNFR2 (not stated | mouse) (UniProt P06804); experiment: as above

| Kd1 [1] | Kd2 [1] | pKd [2] | pEC50 [3] | stoichiometry N [4] | pKd [1] | koff [1] | kon [1] | koff [2] | kon [2] | stoichiometry N [5] | Substance |
| --- | --- | --- | --- | --- | --- | --- | --- | --- | --- | --- | --- |
| 50.9 nM | 3.97 nM | 10.36 | 10.13 | 4 |  |  |  |  |  |  | p53-sc-mTNFR2 (from UniProt P04637 320-359; P06804 91-235; P06804 91-235; P06804 91-235) (ligand) |
|  |  | 10.21 | 9.96 |  | 6.93 | 0.063 s⁻¹ | 533000 M⁻¹ s⁻¹ | 3.74e-05 s⁻¹ | 607000 M⁻¹ s⁻¹ | 2 | EHD2-sc-mTNFR2 (from UniProt P06804 91-235; P06804 91-235; P06804 91-235) (ligand) |
|  |  | 9.35 | 8.81 |  |  |  |  | 0.000399 s⁻¹ | 808000 M⁻¹ s⁻¹ |  | sc-mTNFR2 (mouse TNFR2-specific (D221N/A223R) single-chain mouse TNF) (from UniProt P06804 91-235; P06804 91-235; P06804 91-235) (ligand) |
